Consider two molecules from patent US20080253962A1 (Bristol-Myers Squibb, published 2008).

Test [1] deals with T1, IRTA1, full length transmembrane form with N-terminal myc tag, expressed on transfected CHO cells (human, UniProt Q96PJ5 20-515).
T1 construct: Full length cDNA in CHO cells; also called human IRTA-1; not shown: myc tag at the N-terminus
T1 sequence: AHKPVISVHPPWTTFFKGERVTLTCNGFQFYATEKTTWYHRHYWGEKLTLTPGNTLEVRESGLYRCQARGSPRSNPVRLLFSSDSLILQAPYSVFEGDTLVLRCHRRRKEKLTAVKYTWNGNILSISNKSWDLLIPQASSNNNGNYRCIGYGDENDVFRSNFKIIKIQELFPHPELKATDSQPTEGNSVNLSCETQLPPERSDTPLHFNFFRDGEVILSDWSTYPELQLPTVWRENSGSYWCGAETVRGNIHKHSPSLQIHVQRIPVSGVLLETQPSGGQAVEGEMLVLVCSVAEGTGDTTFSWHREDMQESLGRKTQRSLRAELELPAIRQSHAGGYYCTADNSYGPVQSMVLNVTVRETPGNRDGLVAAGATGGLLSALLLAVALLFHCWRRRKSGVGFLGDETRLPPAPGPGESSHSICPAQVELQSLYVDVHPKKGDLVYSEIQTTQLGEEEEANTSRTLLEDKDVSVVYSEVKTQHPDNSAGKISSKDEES
Kind of test: flow cytometry on transfected CHO cells, GMFI. The source says: (§1) Chinese hamster ovary (CHO) cell lines that express one of each of the five IRTA proteins at the cell surface were developed and used to determine the specificity of the IRTA4 monoclonal antibodies by flow cytometry. CHO cells were transfected with expression plasmids containing full length cDNA encoding transmembrane forms of IRTA1, IRTA2, IRTA3, IRTA4, or IRTA5. In addition, the transfected proteins contained a myc tag at the N-terminus for detection by anti-myc antibody. Binding of the two anti-IRTA4 monoclonal antibodies was assessed by incubating the transfected cells with each of the IRTA4 Abs at a concentration of 10 μg/ml. The cells were washed and binding was detected with a FITC-labeled anti-human IgG Ab. A murine anti-myc Ab followed by labeled anti-murine IgG was used as the positive control. Secondary antibody alone was used as a negative control. The results are depicted in FIG. 7. The IRTA4 monoclonal antibodies 9G11 and 13B1 bound to the CHO line transfected with IRTA4 but not to CHO lines expressing IRTA1, 2, 3 or 5 as measured by the mean fluorescent intensity (MFI) of staining.

Test [2] addresses T2, IRTA3, full length transmembrane form with N-terminal myc tag, expressed on transfected CHO cells (human, UniProt Q96P31 18-734).
T2 construct: Full length cDNA in CHO cells; also called human IRTA-3; not shown: myc tag at the N-terminus
T2 sequence: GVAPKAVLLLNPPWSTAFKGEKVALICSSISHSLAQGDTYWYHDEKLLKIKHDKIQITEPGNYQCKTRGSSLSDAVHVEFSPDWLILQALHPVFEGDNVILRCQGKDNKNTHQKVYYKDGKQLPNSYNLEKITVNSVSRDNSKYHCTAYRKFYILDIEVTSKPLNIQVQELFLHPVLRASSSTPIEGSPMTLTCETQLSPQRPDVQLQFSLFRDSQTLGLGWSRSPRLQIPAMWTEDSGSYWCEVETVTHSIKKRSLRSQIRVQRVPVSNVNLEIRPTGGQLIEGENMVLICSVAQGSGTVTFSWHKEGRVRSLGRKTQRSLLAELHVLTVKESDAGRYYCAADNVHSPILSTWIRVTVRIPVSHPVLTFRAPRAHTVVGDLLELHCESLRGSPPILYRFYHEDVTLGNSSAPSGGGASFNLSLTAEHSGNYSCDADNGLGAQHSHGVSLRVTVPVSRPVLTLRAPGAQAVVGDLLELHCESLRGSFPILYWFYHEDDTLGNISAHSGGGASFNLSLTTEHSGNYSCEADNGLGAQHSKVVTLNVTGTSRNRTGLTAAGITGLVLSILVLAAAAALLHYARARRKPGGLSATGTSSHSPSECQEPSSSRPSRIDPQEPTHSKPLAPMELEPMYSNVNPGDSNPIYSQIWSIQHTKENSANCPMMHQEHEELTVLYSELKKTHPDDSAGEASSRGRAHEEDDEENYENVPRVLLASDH
The test is described as follows: flow cytometry on transfected CHO cells, GMFI.
Text: as §1

Test [3] concerns the target T3, IRTA2, full length transmembrane form with N-terminal myc tag, expressed on transfected CHO cells (human, UniProt Q96RD9 16-977).
T3 construct: Full length cDNA in CHO cells; also called human IRTA-2; not shown: myc tag at the N-terminus
T3 chain: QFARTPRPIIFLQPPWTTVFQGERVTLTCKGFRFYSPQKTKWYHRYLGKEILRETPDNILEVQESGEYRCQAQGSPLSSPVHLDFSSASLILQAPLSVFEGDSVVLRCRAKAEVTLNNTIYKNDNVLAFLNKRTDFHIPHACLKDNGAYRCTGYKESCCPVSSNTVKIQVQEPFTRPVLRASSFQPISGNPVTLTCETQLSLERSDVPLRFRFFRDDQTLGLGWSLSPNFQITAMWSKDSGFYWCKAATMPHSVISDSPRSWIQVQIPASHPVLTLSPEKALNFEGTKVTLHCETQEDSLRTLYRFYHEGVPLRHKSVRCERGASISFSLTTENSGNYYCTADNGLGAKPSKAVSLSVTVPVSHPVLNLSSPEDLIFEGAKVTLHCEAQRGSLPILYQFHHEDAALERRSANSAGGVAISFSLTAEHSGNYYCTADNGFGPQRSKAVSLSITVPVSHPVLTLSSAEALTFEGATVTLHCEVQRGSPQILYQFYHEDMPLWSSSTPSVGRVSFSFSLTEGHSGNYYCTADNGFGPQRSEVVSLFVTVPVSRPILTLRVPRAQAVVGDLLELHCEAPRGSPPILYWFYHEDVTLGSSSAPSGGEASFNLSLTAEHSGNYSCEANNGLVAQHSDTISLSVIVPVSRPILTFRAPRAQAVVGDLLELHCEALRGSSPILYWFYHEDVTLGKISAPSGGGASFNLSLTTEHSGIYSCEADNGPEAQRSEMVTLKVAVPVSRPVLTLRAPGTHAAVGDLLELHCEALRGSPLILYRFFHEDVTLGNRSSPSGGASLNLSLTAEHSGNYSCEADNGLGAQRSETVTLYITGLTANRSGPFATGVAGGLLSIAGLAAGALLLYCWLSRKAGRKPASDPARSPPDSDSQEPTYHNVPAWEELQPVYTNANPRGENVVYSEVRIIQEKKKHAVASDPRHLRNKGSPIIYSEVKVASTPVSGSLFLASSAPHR
The test is described as follows: flow cytometry on transfected CHO cells, GMFI.
Text: as §1

Test [4] deals with T4, IRTA5, full length transmembrane form with N-terminal myc tag, expressed on transfected CHO cells (human, UniProt Q96LA6 17-429).
T4 construct: Full length cDNA in CHO cells; also called human IRTA-5; not shown: myc tag at the N-terminus
T4 sequence: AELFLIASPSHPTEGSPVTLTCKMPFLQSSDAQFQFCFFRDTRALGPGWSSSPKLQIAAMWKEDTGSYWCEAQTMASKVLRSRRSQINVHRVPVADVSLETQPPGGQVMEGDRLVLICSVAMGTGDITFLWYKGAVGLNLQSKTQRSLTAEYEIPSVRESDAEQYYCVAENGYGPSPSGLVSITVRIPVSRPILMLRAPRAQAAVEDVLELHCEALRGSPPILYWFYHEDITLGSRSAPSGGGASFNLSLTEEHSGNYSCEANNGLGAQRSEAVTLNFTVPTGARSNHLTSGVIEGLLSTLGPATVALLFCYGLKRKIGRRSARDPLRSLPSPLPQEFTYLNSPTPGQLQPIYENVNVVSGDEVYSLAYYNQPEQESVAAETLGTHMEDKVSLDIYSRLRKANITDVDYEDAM
Kind of test: flow cytometry on transfected CHO cells, GMFI.
Text: as §1

For test [5], the target named is T5, IRTA4, full length transmembrane form with N-terminal myc tag, expressed on transfected CHO cells (human, UniProt Q96LA5 20-508).
T5 construct: Full length cDNA in CHO cells; also called human IRTA-4; CHO line transfected with IRTA4; not shown: myc tag at the N-terminus
T5 sequence: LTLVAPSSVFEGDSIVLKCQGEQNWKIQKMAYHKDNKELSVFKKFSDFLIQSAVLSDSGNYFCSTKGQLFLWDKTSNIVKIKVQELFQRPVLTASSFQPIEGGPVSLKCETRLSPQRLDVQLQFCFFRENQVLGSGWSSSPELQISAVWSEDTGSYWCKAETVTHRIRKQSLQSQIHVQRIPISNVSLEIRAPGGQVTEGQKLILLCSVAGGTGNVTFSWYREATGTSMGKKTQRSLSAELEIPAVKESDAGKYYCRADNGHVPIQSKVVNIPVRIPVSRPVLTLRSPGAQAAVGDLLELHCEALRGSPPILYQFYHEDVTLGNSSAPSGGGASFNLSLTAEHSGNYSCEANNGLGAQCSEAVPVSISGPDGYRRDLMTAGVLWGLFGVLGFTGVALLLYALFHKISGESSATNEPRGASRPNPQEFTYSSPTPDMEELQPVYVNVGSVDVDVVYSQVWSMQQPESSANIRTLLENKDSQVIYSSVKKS
Kind of test: flow cytometry on IRTA4-transfected CHO cells, antibody at 10 µg/ml, FITC anti-human IgG detection, GMFI.
Text: as §1

The target in test [6] is T6, IRTA4-C9 antigen (fusion protein composed of the extracellular domain of the IRTA4 linked to the carboxy … (human, UniProt P02699 340-348 (bovine entry))).
T6 construct: domain: carboxy terminal nine amino acids
T6 sequence: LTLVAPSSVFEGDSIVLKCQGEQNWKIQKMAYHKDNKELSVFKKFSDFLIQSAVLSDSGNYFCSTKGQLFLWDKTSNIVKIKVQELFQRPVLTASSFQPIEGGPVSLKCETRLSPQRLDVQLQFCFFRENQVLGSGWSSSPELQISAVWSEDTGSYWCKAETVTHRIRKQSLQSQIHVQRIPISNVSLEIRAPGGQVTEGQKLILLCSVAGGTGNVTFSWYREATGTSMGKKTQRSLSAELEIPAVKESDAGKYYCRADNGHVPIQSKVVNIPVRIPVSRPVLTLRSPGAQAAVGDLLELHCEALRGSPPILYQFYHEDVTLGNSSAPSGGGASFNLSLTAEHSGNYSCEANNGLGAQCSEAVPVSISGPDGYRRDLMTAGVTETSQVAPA
Kind of test: Biacore SPR, antibody captured by anti-human IgG on CM5 chip, IRTA4-C9 flowed at 50-400 nM, 1:1 Langmuir fit. The procedure:
Anti-IRTA4 antibodies were characterized for affinities and binding kinetics by Biacore analysis (Biacore AB, Uppsala, Sweden). Purified anti-IRTA4 monoclonal antibodies were captured by anti-human IgG antibody covalently linked to a CM5 chip (carboxy methyl dextran coated chip) via primary amines, using standard amine coupling chemistry and kit provided by Biacore. Binding was measured by flowing the IRTA4-C9 antigen (a fusion protein composed of the extracellular domain of the IRTA4 linked to the carboxy terminal nine amino acids of rhodopsin) in HBS EP buffer (provided by Biacore AB) at concentrations of 400, 300, 200, 100, and 50 nM at a flow rate of 20 μl/min. The antigen-antibody association kinetics was followed for 10 minutes and the dissociation kinetics was followed for 10 minutes. The association and dissociation curves were fit to a 1:1 Langmuir binding model using BIAevaluation software (Biacore AB).

B1: 9G11 human monoclonal antibody (antibody, V domains shown)
VH: QVQLVQSGAEVKKPGASVKVSCKASGYTFTSYAMHWVRQAPGQRLEWMGWINVGNGNTRYSQKFQGRVTITRDTSASTAYMELSSLRSEDTAVYYCAREGSNGWHEDFDYWGQGTLVTVSS
VL: EIVLTQSPATLSLSPGERATLSCRASQSVSSYLAWYQQKPGQAPRLLIYDASNRATGIPARFSGSGSGTDFTLTISSLEPEDFAVYYCQQRSDWPPSLTFGGGTKVEIK
notes: Hybridoma-derived fully human IgG with kappa light chain from KM mice; also called anti-IRTA4 HuMAb 9G11
For the molecule B1, the binding result in test [1] is given as “no binding (tested: 10 µg/ml)”; in test [2] it was “no binding (tested: 10 µg/ml)”; in test [3] it was “no binding (tested: 10 µg/ml)”; in test [4] it was “no binding (tested: 10 µg/ml)”; in test [5], “binds”. In test [6], this molecule registered a Kd of 2.8 nM. Moreover, the koff in test [6] was 7.4e-05 s⁻¹. Also, the kon in test [6] was determined as 26300 M⁻¹ s⁻¹.

B2: 13B1 human monoclonal antibody (antibody, V domains shown)
VH: QVQLVQSGAEVKKPGASVKVSCKASGYNFNSYDISWVRQAAGQGLEWMGWMNPNSGYTSYAQKFQGRVTMTWNTSISTAYMELSSLRSEDSAVYYCAREGIVGAIGWFDPWGQGTLVTVSS
VL: DIQMTQSPSSVSASVGDRVTITCRASQGISSWLAWYQHKPGKAPKLLIYAASSLQSGVPSRFSGSGSGTDFTLTISSLQPEDFATYYCQQANSFPLTFGGGTKVEIK
notes: Hybridoma-derived fully human IgG with kappa light chain from KM mice; also called anti-IRTA4 HuMAb 13B1
As for B2, the binding result in test [1] is on record as “no binding (tested: 10 µg/ml)”; in test [2], “no binding (tested: 10 µg/ml)”; in test [3], “no binding (tested: 10 µg/ml)”; in test [4], “no binding (tested: 10 µg/ml)”; in test [5], “binds”. Also, the Kd in test [6] came to 3.48 nM. The molecule also yielded a koff in test [6] of 0.000426 s⁻¹. The kon in test [6] stood at 125000 M⁻¹ s⁻¹.
